Measurements reported in patent US20130184211A1 (NEW YORK UNIVERSITY, published 2013).

T1: 1:1 binary complex of the ectodomains of FGFR1c and Klotho (human; murine, UniProt O35082 35-982)
T1 construct: range 35-982; also called FGFR1c-Klotho complex; binary FGFR1c-Klotho complex; not shown: C-terminal FLAG tag
T1 sequence 1: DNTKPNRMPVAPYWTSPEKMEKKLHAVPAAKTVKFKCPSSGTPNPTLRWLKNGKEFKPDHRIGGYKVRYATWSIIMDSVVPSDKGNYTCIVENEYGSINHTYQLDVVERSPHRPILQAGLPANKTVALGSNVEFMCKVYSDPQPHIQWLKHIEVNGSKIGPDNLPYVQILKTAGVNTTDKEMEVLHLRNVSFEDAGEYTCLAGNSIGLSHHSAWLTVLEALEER
T1 sequence 2: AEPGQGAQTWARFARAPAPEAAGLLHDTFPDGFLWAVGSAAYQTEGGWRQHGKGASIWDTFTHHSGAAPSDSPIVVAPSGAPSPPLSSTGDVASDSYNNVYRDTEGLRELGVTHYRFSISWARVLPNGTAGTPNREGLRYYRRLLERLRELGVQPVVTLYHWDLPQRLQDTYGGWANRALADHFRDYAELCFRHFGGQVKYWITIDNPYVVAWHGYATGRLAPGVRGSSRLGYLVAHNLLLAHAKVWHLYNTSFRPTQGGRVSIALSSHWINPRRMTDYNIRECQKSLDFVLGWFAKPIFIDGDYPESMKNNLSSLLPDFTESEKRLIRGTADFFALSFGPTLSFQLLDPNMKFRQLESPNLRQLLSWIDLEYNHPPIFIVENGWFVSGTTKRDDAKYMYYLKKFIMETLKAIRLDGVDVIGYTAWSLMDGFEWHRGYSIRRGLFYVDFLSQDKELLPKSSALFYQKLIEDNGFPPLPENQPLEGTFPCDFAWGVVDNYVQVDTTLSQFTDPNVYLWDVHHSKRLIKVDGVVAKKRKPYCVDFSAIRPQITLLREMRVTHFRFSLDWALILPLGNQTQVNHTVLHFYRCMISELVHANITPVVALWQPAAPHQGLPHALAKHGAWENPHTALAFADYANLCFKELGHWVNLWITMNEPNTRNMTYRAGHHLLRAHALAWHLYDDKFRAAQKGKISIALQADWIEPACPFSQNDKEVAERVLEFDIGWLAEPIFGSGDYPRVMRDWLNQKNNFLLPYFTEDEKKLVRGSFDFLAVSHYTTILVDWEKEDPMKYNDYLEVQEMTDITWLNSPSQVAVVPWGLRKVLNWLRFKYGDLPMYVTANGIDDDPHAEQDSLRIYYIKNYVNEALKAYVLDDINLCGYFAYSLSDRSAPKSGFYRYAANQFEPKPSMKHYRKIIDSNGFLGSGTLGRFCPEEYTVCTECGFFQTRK


Key:
[1] = biological target: T1, 1:1 binary complex of the ectodomains …; experiment: SPR competition dose-response: FGF23^180-205 mixed with a fixed concentration of FGFR1c-Klotho, immobilized FGF23^28-251 as competitor; averaged data of two to three experiments
Source text: (§1) To analyze FGF23 binding to the binary FGFR1c-Klotho complex, FGF23²⁸⁻²⁵¹ was coupled to a chip, and increasing concentrations of 1:1 complex of the ectodomains of FGFR1c and Klotho in HBS-EP buffer were passed over the chip. To measure binding of the C-terminal tail of FGF23 to the binary FGFR1c-Klotho complex, FGF23¹⁸⁰⁻²⁵¹ was immobilized on a chip, and increasing concentrations of 1:1 complex of the ectodomains of FGFR1c and Klotho in HBS-EP buffer were passed over the chip. To examine whether the C-terminal tail of FGF23 can compete with full-length FGF23 for binding to the binary FGFR1c-Klotho complex, FGF23²⁸⁻²⁵¹ was immobilized on a chip. Increasing concentrations of FGF23¹⁸⁰⁻²⁵¹ were mixed with a fixed concentration of 1:1 complex of the ectodomains of FGFR1c and Klotho in HBS-EP buffer, and the mixtures were passed over the chip. As a control, competition of FGF23 in solution with immobilized FGF23 for binding to the binary FGFR1c-Klotho complex was studied. Increasing concentrations of FGF23²⁸⁻²⁵¹ were mixed with a fixed concentration of 1:1 complex of the ectodomains of FGFR1c and Klotho in HBS-EP buffer, and the mixtures were passed over the FGF23 chip. […] As a control, competition of FGF23 C-terminal tail peptide in solution with immobilized FGF23 C-terminal tail peptide for binding to the binary FGFR1c-Klotho complex was analyzed. […]

[2] = biological target: T1, 1:1 binary complex of the ectodomains …; experiment: SPR competition; FGF23^28-251 immobilized; reference FGF23^28-251 in solution
Source text: as §1

IC50 (read off the curve) [1] | rightward shift of the dose-response curve compared to full-length FGF23 [2] | Binder
~100 nM | ~6 fold | SAEDDSERDPLNVLKPRARMTPAPAS (Made by solid phase synthesis (GenScript)) [FGF23 C-terminal region peptide (S180 to S205), FGF23^180-205]
 | ~3 fold | N-terminally hexahistidine-tagged 72-amino acid C-terminal tail of human FGF23 (S180 to I251), FGF23^180-251 (Expressed in E. coli; also called FGF23 C-terminal tail peptide; C-terminal tail of FGF23; not shown: N-terminal hexahistidine tag (six His)) peptide: SAEDDSERDPLNVLKPRARMTPAPASCSQELPSAEDNSPMASDPLGVVRGGRVNTHAGGTGPEGCRPFAKFI
